The text below walks through data of the supplement of paper PMC10567573.

B1: OAS1 (parent)
chain: TPAKSLDKFIEDYLLPDTCFRMQI
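Also: lentivirally expressed fusions sorted by FACS into six bins by GFP to DsRed ratio, PSI derived from sequencing read proportions per bin multiplied by bin number.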

This series covers variants of B1. The series is described as follows: protein stability index of a GFP-peptide fusion (GPS, HEK-293T) (PSI 1-6); higher = more stable. The conditions noted are these: c terminus: a fixed tail appended.
With TPSKSLDKFIEDYLLPDTCFRMQI [A3S], the protein stability index was 2.42.

For the variant TPYKSLDKFIEDYLLPDTCFRMQI [A3Y], the protein stability index worked out at 1.96.

For the variant TPVKSLDKFIEDYLLPDTCFRMQI [A3V], the protein stability index was found to be 3.63.

Turning to TPWKSLDKFIEDYLLPDTCFRMQI [A3W], the protein stability index turned out to be 2.58.

As to TPTKSLDKFIEDYLLPDTCFRMQI [A3T], the protein stability index came out at 1.64.

Consider TPRKSLDKFIEDYLLPDTCFRMQI [A3R], for which the protein stability index is 2.23.

Turning to TPAKHLDKFIEDYLLPDTCFRMQI [S5H], the protein stability index came to 1.69.

On to TPAKTLDKFIEDYLLPDTCFRMQI [S5T], for which the protein stability index stood at 2.86.

Take TPAKDLDKFIEDYLLPDTCFRMQI [S5D]: the protein stability index was found to be 2.02.

As to TPAKVLDKFIEDYLLPDTCFRMQI [S5V], the protein stability index is 3.06.

Take TPAKKLDKFIEDYLLPDTCFRMQI [S5K]: the protein stability index stood at 2.14.

As to TPAKWLDKFIEDYLLPDTCFRMQI [S5W], the protein stability index amounted to 1.99.

Regarding TPAKNLDKFIEDYLLPDTCFRMQI [S5N], the protein stability index is 2.78.

For the variant TPAKILDKFIEDYLLPDTCFRMQI [S5I], the protein stability index worked out at 2.43.

Take TPAKCLDKFIEDYLLPDTCFRMQI [S5C]: the protein stability index amounted to 2.19.

For the variant TPAKFLDKFIEDYLLPDTCFRMQI [S5F], the protein stability index is 1.63.

As for TPAKRLDKFIEDYLLPDTCFRMQI [S5R], the protein stability index was 3.08.

Consider TPAKELDKFIEDYLLPDTCFRMQI [S5E], for which the protein stability index came to 1.74.

As to TPAKQLDKFIEDYLLPDTCFRMQI [S5Q], the protein stability index amounted to 2.4.

With TPAKALDKFIEDYLLPDTCFRMQI [S5A], the protein stability index turned out to be 2.52.

On to TPAKLLDKFIEDYLLPDTCFRMQI [S5L], for which the protein stability index stood at 3.15.

For the variant TPAKMLDKFIEDYLLPDTCFRMQI [S5M], the protein stability index is 2.42.

On to TPAKYLDKFIEDYLLPDTCFRMQI [S5Y], for which the protein stability index stood at 2.89.

For the variant TPAKSKDKFIEDYLLPDTCFRMQI [L6K], the protein stability index came to 1.61.

As to TPAKSEDKFIEDYLLPDTCFRMQI [L6E], the protein stability index came out at 1.49.

Turning to TPAKSIDKFIEDYLLPDTCFRMQI [L6I], the protein stability index stood at 3.63.

In the case of TPAKSCDKFIEDYLLPDTCFRMQI [L6C], the protein stability index stood at 2.68.

Consider TPAKSFDKFIEDYLLPDTCFRMQI [L6F], for which the protein stability index was found to be 4.79.

For the variant TPAKSRDKFIEDYLLPDTCFRMQI [L6R], the protein stability index stood at 2.55.

On to TPAKSADKFIEDYLLPDTCFRMQI [L6A], for which the protein stability index was determined as 2.89.

In the case of TPAKSHDKFIEDYLLPDTCFRMQI [L6H], the protein stability index amounted to 2.66.

As for TPAKSVDKFIEDYLLPDTCFRMQI [L6V], the protein stability index amounted to 1.97.

Turning to TPAKSPDKFIEDYLLPDTCFRMQI [L6P], the protein stability index was determined as 2.43.

As for TPAKSYDKFIEDYLLPDTCFRMQI [L6Y], the protein stability index is 3.

Turning to TPAKSNDKFIEDYLLPDTCFRMQI [L6N], the protein stability index amounted to 2.45.

On to TPAKSTDKFIEDYLLPDTCFRMQI [L6T], for which the protein stability index was determined as 3.08.

For the variant TPAKSSDKFIEDYLLPDTCFRMQI [L6S], the protein stability index was 1.94.

With TPAKSDDKFIEDYLLPDTCFRMQI [L6D], the protein stability index is 1.38.

For TPAKSWDKFIEDYLLPDTCFRMQI [L6W], the protein stability index came out at 2.19.

As for TPAKSQDKFIEDYLLPDTCFRMQI [L6Q], the protein stability index was 2.47.

With TPAKSMDKFIEDYLLPDTCFRMQI [L6M], the protein stability index amounted to 2.18.

As to TPAKSLYKFIEDYLLPDTCFRMQI [D7Y], the protein stability index was 2.21.

In the case of TPAKSLQKFIEDYLLPDTCFRMQI [D7Q], the protein stability index turned out to be 2.94.

With TPAKSLNKFIEDYLLPDTCFRMQI [D7N], the protein stability index was 2.1.

In the case of TPAKSLMKFIEDYLLPDTCFRMQI [D7M], the protein stability index was found to be 2.87.

With TPAKSLRKFIEDYLLPDTCFRMQI [D7R], the protein stability index amounted to 2.9.

Take TPAKSLKKFIEDYLLPDTCFRMQI [D7K]: the protein stability index turned out to be 2.05.

TPAKSLHKFIEDYLLPDTCFRMQI [D7H]: the protein stability index stood at 3.9.

In the case of TPAKSLCKFIEDYLLPDTCFRMQI [D7C], the protein stability index was 2.77.

TPAKSLAKFIEDYLLPDTCFRMQI [D7A]: the protein stability index turned out to be 2.77.

For the variant TPAKSLPKFIEDYLLPDTCFRMQI [D7P], the protein stability index came to 1.73.

For the variant TPAKSLTKFIEDYLLPDTCFRMQI [D7T], the protein stability index was 1.25.

With TPAKSLWKFIEDYLLPDTCFRMQI [D7W], the protein stability index was 3.11.

Regarding TPAKSLSKFIEDYLLPDTCFRMQI [D7S], the protein stability index worked out at 3.08.

For TPAKSLLKFIEDYLLPDTCFRMQI [D7L], the protein stability index stood at 2.42.

As for TPAKSLIKFIEDYLLPDTCFRMQI [D7I], the protein stability index turned out to be 2.96.

For TPACSLDKFIEDYLLPDTCFRMQI [K4C], the protein stability index turned out to be 2.29.

As for TPANSLDKFIEDYLLPDTCFRMQI [K4N], the protein stability index amounted to 2.52.

Consider TPATSLDKFIEDYLLPDTCFRMQI [K4T], for which the protein stability index amounted to 2.48.

For TPALSLDKFIEDYLLPDTCFRMQI [K4L], the protein stability index stood at 2.23.

Consider TPAMSLDKFIEDYLLPDTCFRMQI [K4M], for which the protein stability index was found to be 1.67.

On to TPAFSLDKFIEDYLLPDTCFRMQI [K4F], for which the protein stability index came to 2.9.

In the case of TPAHSLDKFIEDYLLPDTCFRMQI [K4H], the protein stability index worked out at 2.59.

Take TPAISLDKFIEDYLLPDTCFRMQI [K4I]: the protein stability index came out at 1.9.

For the variant TPAPSLDKFIEDYLLPDTCFRMQI [K4P], the protein stability index was found to be 2.13.

For TPAWSLDKFIEDYLLPDTCFRMQI [K4W], the protein stability index came out at 3.85.

Take TPADSLDKFIEDYLLPDTCFRMQI [K4D]: the protein stability index was 2.19.

For the variant TPASSLDKFIEDYLLPDTCFRMQI [K4S], the protein stability index was 2.24.

On to TPAKSLDCFIEDYLLPDTCFRMQI [K8C], for which the protein stability index came to 2.99.

TPAKSLDQFIEDYLLPDTCFRMQI [K8Q]: the protein stability index turned out to be 1.68.

For the variant TPAKSLDRFIEDYLLPDTCFRMQI [K8R], the protein stability index was found to be 3.07.

In the case of TPAKSLDSFIEDYLLPDTCFRMQI [K8S], the protein stability index came to 2.43.

On to TPAKSLDAFIEDYLLPDTCFRMQI [K8A], for which the protein stability index is 2.58.

As for TPAKSLDTFIEDYLLPDTCFRMQI [K8T], the protein stability index worked out at 3.17.

As for TPAKSLDGFIEDYLLPDTCFRMQI [K8G], the protein stability index is 1.62.

Regarding TPAKSLDHFIEDYLLPDTCFRMQI [K8H], the protein stability index stood at 1.77.

In the case of TPAKSLDEFIEDYLLPDTCFRMQI [K8E], the protein stability index was 3.06.

Regarding TPAKSLDWFIEDYLLPDTCFRMQI [K8W], the protein stability index came out at 1.98.

As for TPAKSLDPFIEDYLLPDTCFRMQI [K8P], the protein stability index was found to be 3.17.

On to TPAKSLDDFIEDYLLPDTCFRMQI [K8D], for which the protein stability index amounted to 2.58.

With TPAKSLDNFIEDYLLPDTCFRMQI [K8N], the protein stability index turned out to be 2.09.

As for TPAKSLDMFIEDYLLPDTCFRMQI [K8M], the protein stability index was 2.04.

With TPAKSLDLFIEDYLLPDTCFRMQI [K8L], the protein stability index stood at 3.06.

As for TPAKSLDVFIEDYLLPDTCFRMQI [K8V], the protein stability index amounted to 3.42.

For TPAKSLDKEIEDYLLPDTCFRMQI [F9E], the protein stability index is 1.75.

For TPAKSLDKDIEDYLLPDTCFRMQI [F9D], the protein stability index was determined as 2.17.

With TPAKSLDKNIEDYLLPDTCFRMQI [F9N], the protein stability index amounted to 3.1.

In the case of TPAKSLDKHIEDYLLPDTCFRMQI [F9H], the protein stability index turned out to be 2.91.

TPAKSLDKAIEDYLLPDTCFRMQI [F9A]: the protein stability index was found to be 2.42.

Consider TPAKSLDKCIEDYLLPDTCFRMQI [F9C], for which the protein stability index turned out to be 2.66.

In the case of TPAKSLDKMIEDYLLPDTCFRMQI [F9M], the protein stability index stood at 3.26.

On to TPAKSLDKLIEDYLLPDTCFRMQI [F9L], for which the protein stability index was 3.52.

For the variant TPAKSLDKGIEDYLLPDTCFRMQI [F9G], the protein stability index worked out at 1.62.

For TPAKSLDKKIEDYLLPDTCFRMQI [F9K], the protein stability index amounted to 2.13.
